Values of other authors as cited in article PMC10086210.

Molecular target: PD-L1 (Homo sapiens) (UniProt Q9NZQ7)
UniProt Q9NZQ7, sequence (Q9NZQ7 19-238): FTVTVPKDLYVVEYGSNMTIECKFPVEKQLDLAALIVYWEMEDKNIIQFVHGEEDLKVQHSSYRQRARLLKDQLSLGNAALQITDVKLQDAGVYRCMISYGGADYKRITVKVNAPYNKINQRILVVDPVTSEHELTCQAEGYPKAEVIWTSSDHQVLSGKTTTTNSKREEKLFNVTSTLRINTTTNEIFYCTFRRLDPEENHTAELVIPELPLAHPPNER

DPPA-1
Kd: 510 nM
